Experimental findings from PMC10760138 (bioRxiv, 2024) are described below.

B1: HC19 recombinant IgG (antibody, V domains shown)
VH: QVQLKESGPGLVAPSQSLSITCTVSGFLLISNGVHWVRQPPGKGLEWLGVIWAGGNTNYNSALMSRVSISKDNSKSQVFLKMKSLQTDDTAMYYCARDFYDYDVFYYAMDYWGQGTSVTVSS
VL: QAVVTQESALTTSPGETVTLTCRSSTGAVTTSNYANWVQEKPDHLFTGLIGGTNNRAPGVPARFSGSLIGDKAALTITGAQTEDEAIYFCALWYSNHWVFGGGTKLTVL
B2: S8V1–157 recombinant human IgG1 (antibody, V domains shown)
VH: EVQLVQSGAEVKKPGASVKVSCKVSGYRLTALSMHWVRQAPGKGLEWMGGFDPEEDETIYAQNFQGRVTLTEDTSTDTVYMELSSLRSEDTGVYYCATLMGANPFDYWGQGTLIIVSG
VL: not shown
B3: S5V2–29 recombinant IgG (antibody, V domains shown)
VH: QVQLQESGPGLVKPSETLSLTCTVSGGSVSSNIYYWSWIRQTPGKGLEWLGYFYHSGSSNYNPSLKSRVTISGDMSKNQFSLKLKSVTAADTAIYYCARGGVENLMLVAVIQEMWYFDLWGRGTLVTVSG
VL: DIQMTQTPSSLSASVGDRVTITCRASQSIGASLNWYQQKPGEAPKFLIYAASNLQSGVPSRFSGSGSGTDFTLTISSLQPEDFATYYCQQQGTFGQGTKLEIK

This experiment has as its target full-length, membrane-anchored A/Aichi/02/1968(H3N2)(X-31) HA (Influenza A virus …, UniProt P03437). Put plainly: flow cytometry on cells.
In the case of B1, the binding result was “binds”.

For B2, the binding result is reported as “binds”.

Turning to B3, the binding result is on record as “binds”.
